Data as given in US20120020912A1 (WISCONSIN ALUMNI RESEARCH FOUNDATION, published 2012).

Biological target: T1, HLA-A2 on T2 cells (human)
T1 construct: whole, on cells; MHC class I molecule on T2 cells
Test: T2 binding assay: T2 cells pulsed with 50 ug/mL peptide overnight, surface HLA-A2 by flow cytometry (BB7.2)
Experimental: T2 Binding Assay: After passing T2 cells into fresh media the day before the assay, these cells were pulsed with 50 μg/mL peptide overnight at 37° C./5% CO₂.

| Binder | In Vitro HLA-A2 Expression (Relative Mean Flourescent Intensity) |
| --- | --- |
| ALLSSLNEL (Synthetic 9-mer derived from the AR LBD) [AR700 peptide] | 2.66 ratio to unloaded T2 cells |
| WMGLMVFAM (Synthetic 9-mer derived from the AR LBD) [AR742 peptide] | 1.32 ratio to unloaded T2 cells |
| FLCMKALLL (Synthetic 9-mer) [AR805 peptide] | 2.19 ratio to unloaded T2 cells |
| VLEAIEPGV (Synthetic 9-mer derived from the AR LBD) [AR677 peptide] | 1.37 ratio to unloaded T2 cells |
| LLLFSIIPV (Synthetic 9-mer) [AR811 peptide] | 2.54 ratio to unloaded T2 cells |
| RMLYFAPDLV (Synthetic 10-mer) [AR761 peptide] | 2.15 ratio to unloaded T2 cells |
| FSIIPVDGL (Synthetic 9-mer derived from the AR LBD) [AR814 peptide] | 1.01 ratio to unloaded T2 cells |
| LGERQLVHVV (Synthetic 10-mer derived from the AR LBD) [AR708 peptide] | 1.16 ratio to unloaded T2 cells |
| KLLDSVQPI (Synthetic 9-mer derived from the AR LBD) [AR862 peptide] | 1.65 ratio to unloaded T2 cells |
| QLTKLLDSV (Synthetic 9-mer) [AR859 peptide] | 1.33 ratio to unloaded T2 cells |
